Measured values taken from patent publication US20090099072A1 (LES LABORATOIRES SERVIER, published 2009).

How the values were obtained:
[1] = target: T1, Bcl-2 (UniProt P10415-1 1-211, limits assumed); assay: fluorescence polarisation competition; tracer Bak BH3 carboxyfluorescein 15 nM, Bcl-2 1 µM
T1 construct: also called anti-apoptotic member of the Bcl-2 protein family
Experimental: (§1) The following reagents are mixed together in the order stated: [0089] a) competitor peptide at a final concentration of from 1 nM to 100 μM; [0090] b) fluorescent peptide ligand (Bak BH3 carboxyfluorescein) at a final concentration of 15 nM; [0091] c) anti-apoptotic member of the Bcl-2 protein family at a final concentration of 100 nM for Bcl-XL and of 1 μM for Bcl-2 and Bcl-W.
(§2) The mixture is then incubated for 30 minutes at ambient temperature and the fluorescence polarisation is determined on a Fusion apparatus (Packard) (excitation at 485 nm and reading at 530 nm). The values are given in mP (unit of fluorescence polarisation).

[2] = target: T2, Bcl-W (UniProt Q92843-1 1-172, limits assumed); assay: fluorescence polarisation competition; tracer Bak BH3 carboxyfluorescein 15 nM, Bcl-W 1 µM
T2 construct: also called anti-apoptotic member of the Bcl-2 protein family
T2 sequence (looked up): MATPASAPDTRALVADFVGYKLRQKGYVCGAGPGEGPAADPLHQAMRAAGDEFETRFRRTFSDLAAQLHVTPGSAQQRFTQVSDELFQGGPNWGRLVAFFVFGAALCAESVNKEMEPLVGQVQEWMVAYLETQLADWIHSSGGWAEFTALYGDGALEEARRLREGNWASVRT
Experimental: as §1, §2

[3] = target: T3, Bcl-XL (UniProt Q07817-1 1-209); assay: fluorescence polarisation competition; tracer Bak BH3 carboxyfluorescein 15 nM, Bcl-XL 100 nM
T3 construct: also called anti-apoptotic member of the Bcl-2 protein family
Experimental: as §1, §2

T3 sequence (Q07817 1-209): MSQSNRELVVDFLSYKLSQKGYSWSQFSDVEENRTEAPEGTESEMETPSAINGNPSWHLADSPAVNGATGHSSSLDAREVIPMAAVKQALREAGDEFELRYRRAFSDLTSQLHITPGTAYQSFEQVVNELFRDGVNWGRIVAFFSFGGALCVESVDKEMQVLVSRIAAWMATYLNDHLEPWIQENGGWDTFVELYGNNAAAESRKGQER
T1 sequence (P10415 1-211 limits assumed): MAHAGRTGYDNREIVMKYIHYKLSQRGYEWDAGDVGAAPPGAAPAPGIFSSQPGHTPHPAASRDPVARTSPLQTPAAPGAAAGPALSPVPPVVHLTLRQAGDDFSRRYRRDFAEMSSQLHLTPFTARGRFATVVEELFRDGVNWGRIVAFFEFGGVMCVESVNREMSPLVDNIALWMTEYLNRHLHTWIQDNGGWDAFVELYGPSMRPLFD

Ki [1]: 1800 nM | Ki [2]: 7400 nM | Ki [3]: 1150 nM
Binder: GTMENLSRRLKVTGDLFDIMSGQTDV [Beclin peptide, motif GTMENLSRRLKVTGDLFDIMSGQTDV of the Beclin protein]
